{
  "source": "patent US20140080161A1",
  "about": "“PHOSPHATASE COUPLED KINASE ASSAY” (RESEARCH AND DIAGNOSTIC SYSTEMS, INC., priority 2010, published 2014)",
  "molecules": {"B1": {"name": "rhCD39L2: recombinant human CD39L2, nucleotide phosphatase preferring ADP over ATP, used for coupling (protein, UniProt O75354 1-484, looked up)", "Ectonucleoside triphosphate …": "MKKGIRYETSRKTSYIFQQPQHGPWQTRMRKISNHGSLRVAKVAYPLGLCVGVFIYVAYIKWHRATATQAFFSITRAAPGARWGQQAHSPLGTAADGHEVFYGIMFDAGSTGTRVHVFQFTRPPRETPTLTHETFKALKPGLSAYADDVEKSAQGIRELLDVAKQDIPFDFWKATPLVLKATAGLRLLPGEKAQKLLQKVKKVFKASPFLVGDDCVSIMNGTDEGVSAWITINFLTGSLKTPGGSSVGMLDLGGGSTQIAFLPRVEGTLQASPPGYLTALRMFNRTYKLYSYSYLGLGLMSARLAILGGVEGQPAKDGKELVSPCLSPSFKGEWEHAEVTYRVSGQKAAASLHELCAARVSEVLQNRVHRTEEVKHVDFYAFSYYYDLAAGVGLIDAEKGGSLVVGDFEIAAKYVCRTLETQPQSSPFSCMDLTYVSLLLQEFGFPRSKVLKLTRKIDNVETSWALGAIFHYIDSLNRQKSPAS"}},
  "key": {"[1]": {"experiment": "Coupling efficiency: ADP hydrolysis in presence versus absence of ATP", "format": "biochemical", "settings": "for Slope of ADP Hydrolysis Curve (Si): 0.2 μg rhCD39L2, 20 minutes", "excerpt": "The coupling efficiency of a phosphatase may be determined by measuring the rates of ADP hydrolysis in the presence of ATP, and in the absence of ATP, under conditions which are otherwise the same. The coupling efficiency is the ratio of the ADP hydrolysis rate in the presence of ATP to the ADP hydrolysis rate in the absence of ATP. As exemplified in Example 3 (FIG. 4), the coupling efficiency in the presence of i mM of ATP, Ci, is equal to the ratio of the slope of the corresponding ADP hydrolysis curve in the presence of i mM of ATP, Si, to the slope of the ADP hydrolysis curve in the absence of ATP, So. The coupling efficiency may be characterized by the following formula: […]\nThe coupling efficiency will vary depending upon the concentration of ATP. As such, the Ci may be calculated at various ATP concentrations and the results may be plotted to give a curve of coupling efficiency versus ATP concentration. In this way, the coupling efficiency may be determined for any concentration of ATP, such as the beginning concentration of ATP used in a reaction. The coupling efficiency can be obtained once the conditions for a kinase reaction are determined and may then be used to adjust the final measured kinase activity depending upon the ATP concentration. For example, the final measured ADP production may be divided by the coupling efficiency (assuming that the ATP concentration throughout the reaction is approximately constant) in order to calculate the actual ADP production. The coupling efficiency allows for measuring the kinase activity even at high levels of ATP, such as at intracellular ATP concentration levels, about 1 mM, which may be most biologically relevant for some reactions.\nThis experiment measured the coupling efficiency of CD39L2, which was the ratio of the rate of ADP hydrolysis in the presence of ATP to the rate of ADP hydrolysis in the absence of ATP, under conditions which were otherwise identical. In a series of reactions, increasing amounts of ADP (0 to 15 nmol, within the coupling capacity) were hydrolyzed with 0.2 μg of rhCD39L2 in the presence of various concentrations of ATP (0, 0.156, 0.312, 0.625, 1.25, 2.5, or 5 mM). The reactions were stopped after 20 minutes and the Malachite Green assay was performed and OD readings were taken at 620 nm.\nCoupling efficiency in the presence of i mM of ATP (Ci) was determined from the ratio of the slope of the ADP hydrolysis curve in the presence of i mM ATP (Si) to the slope of the ADP hydrolysis curve in the absence of ATP (S0) according to Equation 1. For each concentration of ATP, Ci was calculated. […] The coupling efficiency may then be used to correct the data obtained for any competitive inhibition that might be caused by the ATP, especially at high concentrations of ATP."}, "[2]": {"experiment": "Coupling capacity of the phosphatase (ADP completely hydrolyzed)", "format": "biochemical", "settings": "0.2 μg phosphatase", "excerpt": "Phosphatases useful in embodiments of the invention are preferably able to completely hydrolyze all of the ADP generated in a kinase reaction. The amount of complete hydrolysis which can be performed by a phosphatase under a set of reaction conditions may be characterized as the coupling capacity of the phosphatase. As such, the coupling capacity represents the amount of ADP that can be completely hydrolyzed by a given amount of a phosphatase under specific conditions. Coupling capacity may be determined by performing a series of reactions, combining a set amount of phosphatase with increasing amounts of ADP. The reactions may be performed for various lengths of time, with different coupling capacities as a result. The desired reaction time and amount of phosphatase to be used in kinase reactions can then be selected such that the corresponding coupling capacity is greater than the anticipated amount of ADP produced in the kinase reaction. Coupling capacity can be determined as the maximum amount of ADP that is completely hydrolyzed by a given amount of phosphatase in FIG. 3. […] At this level of ADP production, the amount of phosphatase is therefore adequate. However, as the level of ADP produced increases beyond the capacity for a given amount of phosphatase, hydrolysis may not be complete. At this point, coupling capacity is not adequate for the ADP production during a kinase reaction, and the hydrolysis curve diverges and falls below the phosphate standard curve. […]\nIn order to provide a measurement of kinase activity, the phosphatase needs to be able to completely hydrolyze all ADP generated by the kinase reaction. In this example, the coupling capacity was determined by performing three series of reactions combining 0.2 μg rhCD39L2 with increasing amounts of ADP (3.125, 6.25, 12.5, 25, 50, and 100 nmols), with each series of reactions allowed to run for various lengths of time 10, 20 or 40 minutes. The reactions were stopped and free phosphate was measured using the Malachite Green assay as described above. […]"}},
  "data": [
    {"molecule": "B1", "values": [
      {"measurement": "coupling efficiency", "setting": "[1]; 0.2 mM ATP, based on data of Example 3", "result": 0.9},
      {"measurement": "coupling efficiency", "setting": "[1]; 2 mM ATP, based on data of Example 3", "result": 0.51},
      {"measurement": "coupling efficiency", "setting": "[1]; 4 mM ATP, predicted from data of Example 3 (FIG. 5)", "result": 0.4},
      {"measurement": "Coupling Efficiency (Ci)", "setting": "[1]; ATP 0 mM", "result": 1.00},
      {"measurement": "Slope of ADP Hydrolysis Curve (Si)", "setting": "[1]; ATP 0 mM", "result": 0.280},
      {"measurement": "Coupling Efficiency (Ci)", "setting": "[1]; ATP 0.156 mM", "result": 0.97},
      {"measurement": "Slope of ADP Hydrolysis Curve (Si)", "setting": "[1]; ATP 0.156 mM", "result": 0.271},
      {"measurement": "Coupling Efficiency (Ci)", "setting": "[1]; ATP 0.312 mM", "result": 0.74},
      {"measurement": "Slope of ADP Hydrolysis Curve (Si)", "setting": "[1]; ATP 0.312 mM", "result": 0.207},
      {"measurement": "Coupling Efficiency (Ci)", "setting": "[1]; ATP 0.625 mM", "result": 0.61},
      {"measurement": "Slope of ADP Hydrolysis Curve (Si)", "setting": "[1]; ATP 0.625 mM", "result": 0.170},
      {"measurement": "Coupling Efficiency (Ci)", "setting": "[1]; ATP 1.25 mM", "result": 0.56},
      {"measurement": "Slope of ADP Hydrolysis Curve (Si)", "setting": "[1]; ATP 1.25 mM", "result": 0.157},
      {"measurement": "Coupling Efficiency (Ci)", "setting": "[1]; ATP 2.50 mM", "result": 0.48},
      {"measurement": "Slope of ADP Hydrolysis Curve (Si)", "setting": "[1]; ATP 2.50 mM", "result": 0.134},
      {"measurement": "Coupling Efficiency (Ci)", "setting": "[1]; ATP 5.0 mM", "result": 0.34},
      {"measurement": "Slope of ADP Hydrolysis Curve (Si)", "setting": "[1]; ATP 5.0 mM", "result": 0.096},
      {"measurement": "coupling capacity", "setting": "[2]; 10 minute reaction", "result": "10 nmole of ADP"},
      {"measurement": "coupling capacity", "setting": "[2]; 20 minute reaction", "result": "20 nmole of ADP"},
      {"measurement": "coupling capacity", "setting": "[2]; 40 minute reaction", "result": "100 nmole of ADP"}
    ]}
  ]
}
